Results on eight molecules are retold here after patent US20110081661A1, “Modified photoproteins with increased affinity for calcium and enhanced bioluminescence and uses thereof” (Millipore Corporation, priority 2009, published 2011).

In general, EC50 refers to the concentration needed to bring the measured effect to its halfway point.

Positions count from the first letter of the chain named. In names and notes the source's numbering stands.

For experiment [1], the target named is GIP (gastric inhibitory polypeptide) receptor (UniProt P48546). In words: cell-based or functional assay.
Experiment [2] in a line: Calcium EC50 of mitochondrially targeted photoproteins in HEK293T cells without cotransfected GPCR or G protein (Table II). It is filed as cell-based. The conditions noted are these: no cotransfected GPCR or G protein. The text has this:
In an exemplary experiment, HEK293T cells (ATCC-CRL-11268) were transiently co-transfected with 2 μgs of each of pcDNA3.1-H1 (containing the cDNA encoding the H1 histamine receptor) and pcDNA3.1 containing the cDNAs encoding wild type mitochondrial Clytin (referred to as mt-Clytin), modified mitochondrial Clytin having a lysine to aspartic acid mutation at position 168 (referred to as mt-Clytin K168D), modified mitochondrial Clytin having a lysine to glutamic acid mutation at position 168 (referred to as mt-Clytin K168E), wild-type mitochondrial Obelin (referred to as mt-Obelin) or wild type mitochondrial Aequorin (referred to as mt-Aequorin) using the Targefect-293 reagent (TARGETING SYSTEMS). 48 hours later, the cells were detached using Accutase (MILLIPORE), centrifuged, and resuspended in […] in FreeStyle293 media (INVITROGEN), for incubation for 3-4 hours at room temperature in the dark. After incubation, the cells were centrifuged and resuspended in HBSS/HEPES buffer without Ca^2+ at a density of 1×10^6 cells/ml. Next, 100 μl/well of cell suspension for each transfection were added by the use of a Victor2 luminometer plate reader (WALLAC, […]), to a 96-well plate containing 50 μL/well Triton X-100 in MOPS/KCl buffer containing 10 mM EGTA and a series of Ca^2+ concentrations, such that free calcium concentrations ranged from 17 nM to 39.6 μM, followed by for measurement of total bioluminescence at 20 seconds.
(§1) Signal to background ratio was calculated as the signal induced by maximal GIP (1 μM) divided by the signal induced by buffer alone. The EC50 value for calcium was determined as described above for FIG. 2 for mitochondrially targeted photoproteins transfected into HEK293T cells in the absence of a cotransfected GPCR or G protein. Affinity for calcium was correlated with the properties of the amino acid side chain at residue 168 of Clytin.

Another experiment addresses T1, GIP Receptor (Homo sapiens, UniProt P48546).
T1 construct: host or cells: HEK293T
T1 sequence (P48546 22-466): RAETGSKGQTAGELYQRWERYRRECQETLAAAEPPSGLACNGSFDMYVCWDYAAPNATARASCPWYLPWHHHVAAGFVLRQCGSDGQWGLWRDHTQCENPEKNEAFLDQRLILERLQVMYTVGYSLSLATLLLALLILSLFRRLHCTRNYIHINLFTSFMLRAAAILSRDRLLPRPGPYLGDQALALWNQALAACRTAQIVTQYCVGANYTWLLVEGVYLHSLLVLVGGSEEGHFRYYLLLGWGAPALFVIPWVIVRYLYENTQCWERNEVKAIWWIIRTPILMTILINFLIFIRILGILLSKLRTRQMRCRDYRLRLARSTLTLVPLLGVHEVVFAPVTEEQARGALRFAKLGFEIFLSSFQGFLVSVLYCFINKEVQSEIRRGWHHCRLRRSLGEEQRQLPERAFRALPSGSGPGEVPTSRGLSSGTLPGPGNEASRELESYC
In words: GIP receptor-mediated bioluminescence in HEK293T cells with chimeric promiscuous G protein (FIG. 5, Table II). The conditions noted are these: for Max signal with GIP (RLU × 10^−5) / EC50: HEK293T cells, GIP Receptor + promiscuous G protein; for EC50: luminescence vs GIP concentration; for % GPCR/total: signal induced by maximal GIP (1 μM) as percentage of signal induced by Triton X-100 with 1 mM Ca^2+; for Signal: background with GIP: signal induced by maximal GIP (1 μM) divided by signal induced by buffer alone. It is filed as cell-based. As to the method:
However, coexpression of GIP receptor with a chimeric G protein containing sequences from Gαs and Gαq enable the GIP receptor to stimulate calcium flux.
The results of the dose response curve to varying concentrations of GIP with a subset of the photoproteins are summarized in FIG. 5.
as §1
The EC50 value for receptor-mediated calcium flux induced by the ligand was determined by plotting luminescence (Y-axis) versus ligand concentration applied to the cells (X-axis), and applying a sigmoidal dose-response curve-fitting algorithm (GraphPad Prism). GPCR-mediated signals of the various modified forms of Clytin having an amino acid substitution at position 168 were also related to the nature of the side chain. In addition, the subcellular location of the photoproteins (cytosolic vs mitochondrial) appeared to have an effect on GPCR-mediated signals. […] All of the other mitochondrially targeted mutants except for Clytin K168R and wild-type Clytin yielded results that were in the range of those observed for wt-Aequorin.

Another experiment addresses T2, H1 histamine receptor (Homo sapiens, UniProt P35367).
T2 construct: expressed in transfected cells; host or cells: U-2OS
In words: GPCR-mediated versus total bioluminescence in U-2OS cells (FIG. 4). It is filed as cell-based. The conditions noted are these: 10 μM histamine vs Triton X-100 with 1 mM calcium. The protocol:
In another experiment, the ability of the various photoproteins to detect calcium flux in live cells was assessed by adding varying concentrations of histamine to cells in order to activate the H1 histamine receptor followed by measurement of bioluminescence of the various photoproteins. U-2OS cells were transfected with a cDNA encoding H1 histamine receptor along with a cDNA encoding either a wild-type photoprotein or a modified photoprotein according to the invention, as described above in Example 2, except that Lipofectamine-2000 (INVITROGEN) was used as the transfection reagent. On the second day, the cells were trypsinized, counted, and plated in a white tissue-culture treated 96-well plate (COSTAR) at a density of about 50,000 cells/well in growth media consisting of DMEM containing 10% fetal bovine serum, non-essential amino acids, HEPES and penicillin/streptomycin. On the third day, the medium was removed and cells were washed once with 200 μl/well of HBSS/HEPES (containing Ca^2+). Cells were subsequently incubated with 5 μM coelenterazine in HBSS/HEPES (containing Ca^2+) in a volume of 200 μl/well, for 3-4 hours at room temperature in the dark. After incubation, the coelenterazine solution was removed and cells were washed and replaced with HBSS/HEPES buffer containing both Ca^2+ and Mg^2+. 50 μl/well of histamine at varying concentrations in HBSS/HEPES containing both Ca^2+ and Mg^2+ was added to the cells and total bioluminescence was measured at 20 seconds using a Victor2 luminometer.
In an exemplary experiment, U-2OS cells were transfected, plated and loaded with coelenterazine as described in Example 3. Luminescence induced by buffer alone or by 10 μM histamine was measured also as described in Example 3. Additionally, luminescence induced by addition of Triton X-100 in the presence of 1 mM calcium was also determined in order to assess the total amount of active photoprotein detectable using saturating calcium concentrations in cells.

T2 sequence (P35367 whole entry): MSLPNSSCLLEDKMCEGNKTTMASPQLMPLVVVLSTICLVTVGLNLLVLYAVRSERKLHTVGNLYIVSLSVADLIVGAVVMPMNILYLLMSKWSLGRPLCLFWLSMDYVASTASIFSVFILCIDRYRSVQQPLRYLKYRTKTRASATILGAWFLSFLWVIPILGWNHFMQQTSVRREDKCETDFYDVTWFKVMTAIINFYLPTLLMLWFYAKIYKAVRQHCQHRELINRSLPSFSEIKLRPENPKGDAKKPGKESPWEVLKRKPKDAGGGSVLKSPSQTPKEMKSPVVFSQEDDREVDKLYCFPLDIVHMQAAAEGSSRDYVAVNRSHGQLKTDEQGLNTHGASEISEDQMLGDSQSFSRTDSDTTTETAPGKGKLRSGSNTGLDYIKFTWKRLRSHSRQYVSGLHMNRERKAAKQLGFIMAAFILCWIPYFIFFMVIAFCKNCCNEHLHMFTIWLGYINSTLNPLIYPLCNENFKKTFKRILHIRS

As for “GIP (gastric inhibitory polypeptide) ligand (from UniProt P09681 52-93)”, in experiment [1], the EC50 for GIP (nM); receptor-mediated calcium flux luminescence in HEK293T cells, reporter Cyto-aequorin was 6.67 nM; the EC50 for GIP (nM); receptor-mediated calcium flux luminescence in HEK293T cells, reporter Cyto-clytin K168D was determined as 4.01 nM; the EC50 for GIP (nM); receptor-mediated calcium flux luminescence in HEK293T cells, reporter Cyto-clytin K168E was 7.9 nM; the EC50 for GIP (nM); receptor-mediated calcium flux luminescence in HEK293T cells, reporter Cyto-clytin wt worked out at 9.67 nM. Further, in experiment [1], the EC50 for GIP (nM); receptor-mediated calcium flux luminescence in HEK293T cells, reporter Cyto-obelin was found to be 9.86 nM; the EC50 for GIP (nM); receptor-mediated calcium flux luminescence in HEK293T cells, reporter Mt-aequorin is 11.3 nM; the EC50 for GIP (nM); receptor-mediated calcium flux luminescence in HEK293T cells, reporter Mt-clytin K168D came to 9.1 nM; the EC50 for GIP (nM); receptor-mediated calcium flux luminescence in HEK293T cells, reporter Mt-clytin K168E was 21.6 nM. For the same molecule, in experiment [1], the EC50 for GIP (nM); receptor-mediated calcium flux luminescence in HEK293T cells, reporter Mt-clytin K168G is 15.1 nM; the EC50 for GIP (nM); receptor-mediated calcium flux luminescence in HEK293T cells, reporter Mt-clytin K168H worked out at 19.2 nM; the EC50 for GIP (nM); receptor-mediated calcium flux luminescence in HEK293T cells, reporter Mt-clytin K168N came out at 21 nM; the EC50 for GIP (nM); receptor-mediated calcium flux luminescence in HEK293T cells, reporter Mt-clytin K168Q is 17.4 nM. Also, in experiment [1], the EC50 for GIP (nM); receptor-mediated calcium flux luminescence in HEK293T cells, reporter Mt-clytin K168R came out at 29.1 nM; the EC50 for GIP (nM); receptor-mediated calcium flux luminescence in HEK293T cells, reporter Mt-clytin K168S came to 15.4 nM; the EC50 for GIP (nM); receptor-mediated calcium flux luminescence in HEK293T cells, reporter Mt-clytin K168T turned out to be 13.4 nM; the EC50 for GIP (nM); receptor-mediated calcium flux luminescence in HEK293T cells, reporter Mt-clytin K168V is 16.8 nM. In addition, in experiment [1], the EC50 for GIP (nM); receptor-mediated calcium flux luminescence in HEK293T cells, reporter Mt-clytin K168Y turned out to be 16.4 nM; the EC50 for GIP (nM); receptor-mediated calcium flux luminescence in HEK293T cells, reporter Mt-clytin wt is 12.9 nM; the EC50 for GIP (nM); receptor-mediated calcium flux luminescence in HEK293T cells, reporter Mt-obelin turned out to be 13.7 nM.

B1: Mt-clytin K168Q: Mitochondrial K168Q modified Clytin, SEQ ID NO:20 (protein)
chain: MSVLTPLLLRGLTGSARRLPVPRAKIHSLPPEGKLRPNFDNPKWVNRHKFMFNFLDINGDGKITLDEIVSKASDDICAKLGATPEQTKRHQDAVEAFFKKIGMDYGKEVEFPAFVDGWKELANYDLKLWSQNKKSLIRDWGEAVFDIFDKDGSGSISLDEWKAYGRISGICSSDEDAEKTFKHCDLDNSGQLDVDEMTRQHLGFWYTLDPNADGLYGNFVP
Take B1: the EC50 in experiment [2] is 335 nM. Moreover, in the experiment with GIP Receptor, the “Max signal with GIP (RLU × 10^−5)” value is on record as 4.78 RLU × 10^−5, the EC50 amounted to 17.4 nM, the “% GPCR/total” value worked out at 14.2% and the “Signal: background with GIP” value stood at 125.8.

B2: Mt-clytin K168H: Mitochondrial K168H modified Clytin, SEQ ID NO:14 (protein)
chain: B1 chain with Q191H
B2: the EC50 in experiment [2] is 459 nM. Also, in the experiment with GIP Receptor, the “Max signal with GIP (RLU × 10^−5)” value is on record as 4.98 RLU × 10^−5, the EC50 stood at 19.2 nM, the “% GPCR/total” value is listed as 14.9% and the “Signal: background with GIP” value was found to be 148.3.

B3: Mt-clytin K168R: Mitochondrial K168R modified Clytin, SEQ ID NO:30 (protein)
chain: B1 chain with Q191R
B3: in experiment [2], the EC50 was determined as 581 nM. Also, in the experiment with GIP Receptor, the “Max signal with GIP (RLU × 10^−5)” value stood at 1.89 RLU × 10^−5, the EC50 worked out at 29.1 nM, the “% GPCR/total” value was found to be 3.3% and the “Signal: background with GIP” value turned out to be 86.8.

B4: Mt-clytin K168Y: Mitochondrial K168Y modified Clytin, SEQ ID NO:28 (protein)
chain: B1 chain with Q191Y
As for B4, the EC50 in experiment [2] turned out to be 284 nM. Further, in the experiment with GIP Receptor, the “Max signal with GIP (RLU × 10^−5)” value amounted to 2.89 RLU × 10^−5, the EC50 was determined as 16.4 nM, the “% GPCR/total” value is given as 18.5% and the “Signal: background with GIP” value is on record as 112.8.

B5: Mt-clytin K168V: Mitochondrial K168V modified Clytin, SEQ ID NO:26 (protein)
chain: B1 chain with Q191V
On to B5, for which the EC50 in experiment [2] came out at 389 nM. Moreover, in the experiment with GIP Receptor, the “Max signal with GIP (RLU × 10^−5)” value is recorded as 3.60 RLU × 10^−5, the EC50 is 16.8 nM, the “% GPCR/total” value came out at 18.5% and the “Signal: background with GIP” value is given as 158.0.

B6: Mt-obelin: Mitochondrial Wild-type Obelin (mt-Obelin), SEQ ID NO:7 (protein, listed as Obelia longissima)
chain: MSVLTPLLLRGLTGSARRLPVPRAKIHSLPPEGKLMSSKYAVKLKTDFDNPRWIKRHKHMFDFLDINGNGKITLDEIVSKASDDICAKLEATPEQTKRHQVCVEAFFRGCGMEYGKEIAFPQFLDGWKQLATSELKKWARNEPTLIREWGDAVFDIFDKDGSGTITLDEWKAYGKISGISPSQEDCEATFRHCDLDNSGDLDVDEMTRQHLGFWYTLDPEADGLYGNGVP
As for B6, the EC50 in experiment [2] worked out at 373 nM. Besides, in the experiment with GIP Receptor, the “Max signal with GIP (RLU × 10^−5)” value is recorded as 3.66 RLU × 10^−5, the EC50 was determined as 13.7 nM, the “% GPCR/total” value stood at 116% and the “Signal: background with GIP” value is 172.5.

B7: Cyto-clytin wt: Wild type Clytin (wt-Clytin) amino acid sequence, SEQ ID NO:1; cytosolic (protein, listed as Clytia gregaria)
chain: MADTASKYAVKLRPNFDNPKWVNRHKFMFNFLDINGDGKITLDEIVSKASDDICAKLGATPEQTKRHQDAVEAFFKKIGMDYGKEVEFPAFVDGWKELANYDLKLWSQNKKSLIRDWGEAVFDIFDKDGSGSISLDEWKAYGRISGICSSDEDAEKTFKHCDLDNSGKLDVDEMTRQHLGFWYTLDPNADGLYGNFVP
For B7, the “GPCR-mediated signal as % of the total signal” value with H1 histamine receptor is roughly 3%. In the experiment with GIP Receptor, the “Max signal with GIP (RLU × 10^−5)” value turned out to be 0.2 RLU × 10^−5, the EC50 is 9.67 nM, the “% GPCR/total” value is on record as 0.3% and the “Signal: background with GIP” value turned out to be 7.0.
